{"source": "the supplement of paper PMC9112550", "about": "“Optimization of the antimicrobial peptide Bac7 by deep mutational scanning” (BMC Biology, 2022);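 further: peptides expressed intracellularly from a pBAD plasmid library in pooled LB shake-flask culture, induced with 0.3% L-arabinose, DNA abundance read by NGS, three biological replicates, DESeq2 with apeglm shrinkage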"}
{"tested_on": "Escherichia coli TOP10", "test": "shrunken log2 fold change of peptide-encoding DNA abundance (4.5 h post-induction vs induction); higher = less antimicrobial activity (less host growth inhibition)", "conditions": "time post-induction: 4.5 h; library: site-saturation at positions 5, 18, 19, 20"}
{"sequence": "RRIRVRPPRLPRPRPRPVSLPRP", "shrunken log2 fold change": 0.106}
{"sequence": "RRIRKRPPRLPRPRPRPSNLPRP", "shrunken log2 fold change": -0.0133}
{"sequence": "RRIRYRPPRLPRPRPRPTWCPRP", "shrunken log2 fold change": -0.544}
{"sequence": "RRIRLRPPRLPRPRPRPATLPRP", "shrunken log2 fold change": -0.12}
{"sequence": "RRIRDRPPRLPRPRPRPCCIPRP", "shrunken log2 fold change": 0.168}
{"sequence": "RRIRVRPPRLPRPRPRPYMPPRP", "shrunken log2 fold change": -0.78}
{"sequence": "RRIRMRPPRLPRPRPRPYSLPRP", "shrunken log2 fold change": -0.129}
{"sequence": "RRIRARPPRLPRPRPRPWYKPRP", "shrunken log2 fold change": -0.229}
{"sequence": "RRIRDRPPRLPRPRPRPNWSPRP", "shrunken log2 fold change": -0.0955}
{"sequence": "RRIRTRPPRLPRPRPRPMGPPRP", "shrunken log2 fold change": -0.114}
{"sequence": "RRIRARPPRLPRPRPRPNCIPRP", "shrunken log2 fold change": -0.113}
{"sequence": "RRIRYRPPRLPRPRPRPPNWPRP", "shrunken log2 fold change": -0.00249}
{"sequence": "RRIRYRPPRLPRPRPRPLTDPRP", "shrunken log2 fold change": -0.134}
{"sequence": "RRIRERPPRLPRPRPRPFQTPRP", "shrunken log2 fold change": 0.11}
{"sequence": "RRIRWRPPRLPRPRPRPQENPRP", "shrunken log2 fold change": -0.0785}
{"sequence": "RRIRFRPPRLPRPRPRPGHDPRP", "shrunken log2 fold change": 0.062}
{"sequence": "RRIRNRPPRLPRPRPRPKMPPRP", "shrunken log2 fold change": 0.341}
{"sequence": "RRIRYRPPRLPRPRPRPCVCPRP", "shrunken log2 fold change": -1.24}
{"sequence": "RRIRRRPPRLPRPRPRPCNLPRP", "shrunken log2 fold change": -0.0686}
{"sequence": "RRIRNRPPRLPRPRPRPHEAPRP", "shrunken log2 fold change": -0.0663}
{"sequence": "RRIRHRPPRLPRPRPRPPPHPRP", "shrunken log2 fold change": 0.703}
{"sequence": "RRIRYRPPRLPRPRPRPWQDPRP", "shrunken log2 fold change": -0.122}
{"sequence": "RRIRGRPPRLPRPRPRPEALPRP", "shrunken log2 fold change": 1.33}
{"sequence": "RRIRIRPPRLPRPRPRPCILPRP", "shrunken log2 fold change": -0.55}
{"sequence": "RRIRERPPRLPRPRPRPAPIPRP", "shrunken log2 fold change": 0.0258}
{"sequence": "RRIRHRPPRLPRPRPRPNGNPRP", "shrunken log2 fold change": -0.617}
{"sequence": "RRIRYRPPRLPRPRPRPLSLPRP", "shrunken log2 fold change": -1.1}
{"sequence": "RRIRQRPPRLPRPRPRPPAAPRP", "shrunken log2 fold change": 0.778}
{"sequence": "RRIRWRPPRLPRPRPRPSFMPRP", "shrunken log2 fold change": -0.304}
{"sequence": "RRIRYRPPRLPRPRPRPHKWPRP", "shrunken log2 fold change": -0.581}
{"sequence": "RRIRNRPPRLPRPRPRPRKMPRP", "shrunken log2 fold change": 0.263}
{"sequence": "RRIRERPPRLPRPRPRPRFWPRP", "shrunken log2 fold change": 0.549}
{"sequence": "RRIRDRPPRLPRPRPRPIFMPRP", "shrunken log2 fold change": -0.285}
{"sequence": "RRIRPRPPRLPRPRPRPNRYPRP", "shrunken log2 fold change": -0.0334}
{"sequence": "RRIRQRPPRLPRPRPRPAYIPRP", "shrunken log2 fold change": -0.00563}
{"sequence": "RRIRRRPPRLPRPRPRPKPYPRP", "shrunken log2 fold change": -0.033}
{"sequence": "RRIRHRPPRLPRPRPRPRMAPRP", "shrunken log2 fold change": 0.0651}
{"sequence": "RRIRQRPPRLPRPRPRPSERPRP", "shrunken log2 fold change": -0.143}
{"sequence": "RRIRSRPPRLPRPRPRPLEEPRP", "shrunken log2 fold change": 0.411}
{"sequence": "RRIRWRPPRLPRPRPRPKVVPRP", "shrunken log2 fold change": 0.352}
{"sequence": "RRIRRRPPRLPRPRPRPVHCPRP", "shrunken log2 fold change": 0.345}
{"sequence": "RRIRDRPPRLPRPRPRPAIHPRP", "shrunken log2 fold change": 0.00344}
{"sequence": "RRIRTRPPRLPRPRPRPCCQPRP", "shrunken log2 fold change": 0.0313}
{"sequence": "RRIRFRPPRLPRPRPRPKTFPRP", "shrunken log2 fold change": -0.18}
{"sequence": "RRIRVRPPRLPRPRPRPDWFPRP", "shrunken log2 fold change": -0.597}
{"sequence": "RRIRSRPPRLPRPRPRPERFPRP", "shrunken log2 fold change": 0.196}
{"sequence": "RRIRLRPPRLPRPRPRPTGHPRP", "shrunken log2 fold change": 0.0863}
{"sequence": "RRIRRRPPRLPRPRPRPQFYPRP", "shrunken log2 fold change": -0.41}
{"sequence": "RRIRYRPPRLPRPRPRPMSDPRP", "shrunken log2 fold change": 0.0277}
{"sequence": "RRIRQRPPRLPRPRPRPGISPRP", "shrunken log2 fold change": 0.0461}
{"sequence": "RRIRLRPPRLPRPRPRPESPPRP", "shrunken log2 fold change": 0.124}
{"sequence": "RRIRWRPPRLPRPRPRPMDDPRP", "shrunken log2 fold change": -0.172}
{"sequence": "RRIRQRPPRLPRPRPRPSNYPRP", "shrunken log2 fold change": -0.0943}
{"sequence": "RRIRMRPPRLPRPRPRPWFEPRP", "shrunken log2 fold change": -0.13}
{"sequence": "RRIRMRPPRLPRPRPRPWLLPRP", "shrunken log2 fold change": -0.0297}
{"sequence": "RRIRRRPPRLPRPRPRPCVDPRP", "shrunken log2 fold change": 0.163}
{"sequence": "RRIRKRPPRLPRPRPRPYQKPRP", "shrunken log2 fold change": -0.00762}
{"sequence": "RRIRDRPPRLPRPRPRPEVVPRP", "shrunken log2 fold change": -0.00213}
{"sequence": "RRIRIRPPRLPRPRPRPYAEPRP", "shrunken log2 fold change": -0.844}
{"sequence": "RRIRMRPPRLPRPRPRPMAHPRP", "shrunken log2 fold change": -0.0858}
{"sequence": "RRIRMRPPRLPRPRPRPEGFPRP", "shrunken log2 fold change": 2.81}
{"sequence": "RRIRSRPPRLPRPRPRPAIQPRP", "shrunken log2 fold change": -0.21}
{"sequence": "RRIRLRPPRLPRPRPRPEWCPRP", "shrunken log2 fold change": -0.131}
{"sequence": "RRIRTRPPRLPRPRPRPDYWPRP", "shrunken log2 fold change": -0.149}
{"sequence": "RRIRPRPPRLPRPRPRPETRPRP", "shrunken log2 fold change": 0.187}
{"sequence": "RRIRSRPPRLPRPRPRPDVAPRP", "shrunken log2 fold change": 0.407}
{"sequence": "RRIRIRPPRLPRPRPRPYAAPRP", "shrunken log2 fold change": -0.563}
{"sequence": "RRIRERPPRLPRPRPRPQLIPRP", "shrunken log2 fold change": -0.759}
{"sequence": "RRIRQRPPRLPRPRPRPKLYPRP", "shrunken log2 fold change": -0.0149}
{"sequence": "RRIRRRPPRLPRPRPRPQKCPRP", "shrunken log2 fold change": -0.288}
{"sequence": "RRIRNRPPRLPRPRPRPWNWPRP", "shrunken log2 fold change": -0.0655}
{"sequence": "RRIRMRPPRLPRPRPRPMGMPRP", "shrunken log2 fold change": -0.103}
{"sequence": "RRIRMRPPRLPRPRPRPPARPRP", "shrunken log2 fold change": 1.4}
{"sequence": "RRIRTRPPRLPRPRPRPTPWPRP", "shrunken log2 fold change": 0.411}
{"sequence": "RRIRRRPPRLPRPRPRPMGPPRP", "shrunken log2 fold change": 0.135}
